T1: human FAPα (Fibroblast activation protein alpha), cell surface expressed (human, UniProt Q12884 1-760)
T1 construct: Endogenous on human lung fibroblasts and CAFs
T1 sequence: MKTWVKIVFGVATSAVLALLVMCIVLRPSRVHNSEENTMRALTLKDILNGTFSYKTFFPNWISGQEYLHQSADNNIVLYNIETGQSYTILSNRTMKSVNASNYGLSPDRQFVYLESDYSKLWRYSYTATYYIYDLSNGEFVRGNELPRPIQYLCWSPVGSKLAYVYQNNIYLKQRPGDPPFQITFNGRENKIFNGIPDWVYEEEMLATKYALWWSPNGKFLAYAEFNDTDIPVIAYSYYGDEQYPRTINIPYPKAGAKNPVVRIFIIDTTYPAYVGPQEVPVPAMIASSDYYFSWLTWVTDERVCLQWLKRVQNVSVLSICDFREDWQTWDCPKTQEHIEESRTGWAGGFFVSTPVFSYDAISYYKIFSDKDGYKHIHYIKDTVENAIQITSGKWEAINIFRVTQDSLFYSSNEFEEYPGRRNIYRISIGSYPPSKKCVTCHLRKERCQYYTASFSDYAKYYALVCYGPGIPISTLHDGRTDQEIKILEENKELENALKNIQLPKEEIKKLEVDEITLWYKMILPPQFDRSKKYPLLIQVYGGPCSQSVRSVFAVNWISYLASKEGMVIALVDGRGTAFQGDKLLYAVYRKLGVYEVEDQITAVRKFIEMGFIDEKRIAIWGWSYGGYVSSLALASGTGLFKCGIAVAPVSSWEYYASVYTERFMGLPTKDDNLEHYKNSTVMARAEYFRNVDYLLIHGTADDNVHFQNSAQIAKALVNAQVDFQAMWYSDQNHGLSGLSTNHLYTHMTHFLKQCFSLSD

T2: human DR4 (Death Receptor 4), cell surface expressed on human tumor cell lines (human, UniProt O00220 24-468)
T2 construct: also called TNFRSF10A; TRAIL-R1
T2 sequence: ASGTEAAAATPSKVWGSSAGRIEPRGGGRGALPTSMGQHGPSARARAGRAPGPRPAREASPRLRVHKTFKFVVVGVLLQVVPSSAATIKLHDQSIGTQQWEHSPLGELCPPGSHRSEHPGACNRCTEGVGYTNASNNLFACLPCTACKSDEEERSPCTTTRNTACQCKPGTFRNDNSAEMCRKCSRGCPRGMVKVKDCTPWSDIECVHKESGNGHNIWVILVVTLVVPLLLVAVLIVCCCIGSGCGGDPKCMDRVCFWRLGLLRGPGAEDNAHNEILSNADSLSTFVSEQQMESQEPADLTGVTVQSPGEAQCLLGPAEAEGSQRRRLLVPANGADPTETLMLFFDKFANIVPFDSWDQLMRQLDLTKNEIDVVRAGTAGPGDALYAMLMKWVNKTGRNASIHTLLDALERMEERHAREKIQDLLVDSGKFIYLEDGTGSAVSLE


Tests used:
[1] = target: T1, human FAPα (Fibroblast activation …); assay: flow cytometry, human lung fibroblasts, n = 1
Description: (§1) Binding of bispecific or monoclonal antibodies carrying the anti-FAPα arm derived from IgG1-FAPα-FERL (BisG1-FAPα-FERL/DR4-FERR, BisG1-FAPα-FERL/b12-FERR, and IgG1-FAPα-FERL) to cell surface expressed human FAPα was analyzed by flow cytometry using human lung fibroblasts and CAFs, which endogenously express FAPα. BisG1-b12-FERL/b12-FERR was used as negative control.
(§2) Human lung fibroblasts and CAFs (50,000 cells/well) were seeded in 96-Well round bottom plates (Greiner Bio-one, Cat #650101). Antibody dilutions were prepared using fluorescence-activated cell sorting (FACS) buffer, consisting of phosphate buffer saline (PBS, Lonza, Cat #BE17-517Q)+1% Bovine Serum Albumin (BSA, Roche, Cat #10735086001)+0.02% Sodium Azide (Bio-World, Cat #41920044-3). Plates were centrifuged, supernatant was removed, cells were resuspended in 50 μL of human Fc Block (BD, Cat #564220, diluted 1:100 in FACS buffer) and 50 μL of viability stain TO-PRO-3 Iodide (Thermo Fisher, Cat #T3605, diluted 1: 25,000 in FACS buffer), and incubated for 15 min at 4° C. Plates were washed three times with FACS buffer. Plates were centrifuged, supernatant was removed, cells were resuspended in 50 μL of antibody dilutions (concentration range 90-0.0005 μg/mL, three-fold dilution steps using FACS buffer) of BisG1-FAPα-FERL/DR4-FERR, BisG1-FAPα-FERL/b12-FERR, BisG1-b12-FERL/b12-FERR (top six concentrations only for CAFs culture) or IgG1-FAPα-FERL (top four concentrations only for CAFs culture) and incubated for 30 min at 4° C. Cells were washed three times with FACS buffer and resuspended in 50 μL of Fluorescein isothiocyanate (FITC)-labeled polyclonal antibody goat anti-mouse IgG1 (Jackson Immuno Research, Cat #109-096-097, diluted 1:100 in FACS buffer). […] Antibody binding to viable cells (TO-PRO-3 negative) was analyzed by flow cytometry on a FACSCelesta™ (BD biosciences) and data were processed using FlowJo_v10.8.1 (FlowJo LLC). Geomean fluorescence intensity, gMFI, was determined and visualized using GraphPad Prism.

[2] = target: T1, human FAPα (Fibroblast activation …); assay: flow cytometry, human lung fibroblasts, n = 3
Description: as §1, §2

[3] = target: T1, human FAPα (Fibroblast activation …); assay: flow cytometry, human lung fibroblasts, average ± SEM
Description: as §1, §2

[4] = target: T2, human DR4 (Death Receptor 4), cell …; assay: flow cytometry, A549 cells, n = 1
[5] = target: T2, human DR4 (Death Receptor 4), cell …; assay: flow cytometry, A549 cells, n = 2
[6] = target: T2, human DR4 (Death Receptor 4), cell …; assay: flow cytometry, DLD-1 cells, n = 2
[7] = target: T2, human DR4 (Death Receptor 4), cell …; assay: flow cytometry, HCT-15 cells, n = 1
[8] = target: T2, human DR4 (Death Receptor 4), cell …; assay: flow cytometry, MDA-MB-231 cells, n = 2
[9] = target: T2, human DR4 (Death Receptor 4), cell …; assay: flow cytometry, PANC-1 cells, average ± SEM

Row | Binder | EC50 [1] [µg/mL] | EC50 [2] [µg/mL] | EC50 [3] [µg/mL] | EC50 [4] [µg/mL] | EC50 [5] [µg/mL] | EC50 [6] [µg/mL] | EC50 [7] [µg/mL] | EC50 [8] [µg/mL] | EC50 [9] [µg/mL]
1 | BisG1-FAPα-FERL/b12-FERR (bispecific antibody, human IgG1, kappa) heavy 1: EVQLLESGGGLVQPGGSPRLSCEASGFTFSSYALSWVRQAPGKGLEWVSAISGSGGGRYYADSVKGRFTISRDNSKNTLFLQMNSLRAEDTAVYYCAKEGYSSSGTYWDHWGQGTLVTVSSASTKGPSVFPLAPSSKSTSGGTAALGCLVKDYFPEPVTVSWNSGALTSGVHTFPAVLQSSGLYSLSSVVTVPSSSLGTQTYICNVNHKPSNTKVDKRVEPKSCDKTHTCPPCPAPEFERGPSVFLFPPKPKDTLMISRTPEVTCVVVDVSHEDPEVKFNWYVDGVEVHNAKTKPREEQYNSTYRVVSVLTVLHQDWLNGKEYKCKVSNKALPAPIEKTISKAKGQPREPQVYTLPPSREEMTKNQVSLTCLVKGFYPSDIAVEWESNGQPENNYKTTPPVLDSDGSFLLYSKLTVDKSRWQQGNVFSCSVMHEALHNHYTQKSLSLSPG light 1: AIQMTQSPSSVSASVGDRVTITCRASQGVSSWLAWYQQKPGRAPKLLIYVASTLQSGVPSRFSGSGSGTDFTLTINSLQPEDFATYYCQQANSFPPTFGQGTRLEMKRTVAAPSVFIFPPSDEQLKSGTASVVCLLNNFYPREAKVQWKVDNALQSGNSQESVTEQDSKDSTYSLSSTLTLSKADYEKHKVYACEVTHQGLSSPVTKSFNRGEC heavy 2: QVQLVQSGAEVKKPGASVKVSCQASGYRFSNFVIHWVRQAPGQRFEWMGWINPYNGNKEFSAKFQDRVTFTADTSANTAYMELRSLRSADTAVYYCARVGPYSWDDSPQDNYYMDVWGKGTTVIVSSASTKGPSVFPLAPSSKSTSGGTAALGCLVKDYFPEPVTVSWNSGALTSGVHTFPAVLQSSGLYSLSSVVTVPSSSLGTQTYICNVNHKPSNTKVDKRVEPKSCDKTHTCPPCPAPEFERGPSVFLFPPKPKDTLMISRTPEVTCVVVDVSHEDPEVKFNWYVDGVEVHNAKTKPREEQYNSTYRVVSVLTVLHQDWLNGKEYKCKVSNKALPAPIEKTISKAKGQPREPQVYTLPPSREEMTKNQVSLTCLVKGFYPSDIAVEWESNGQPENNYKTTPPVLDSDGSFFLYSRLTVDKSRWQQGNVFSCSVMHEALHNHYTQKSLSLSPG light 2: EIVLTQSPGTLSLSPGERATFSCRSSHSIRSRRVAWYQHKPGQAPRLVIHGVSNRASGISDRFSGSGSGTDFTLTITRVEPEDFALYYCQVYGASSYTFGQGTKLERKRTVAAPSVFIFPPSDEQLKSGTASVVCLLNNFYPREAKVQWKVDNALQSGNSQESVTEQDSKDSTYSLSSTLTLSKADYEKHKVYACEVTHQGLSSPVTKSFNRGEC | 0.043 | 0.048 | 0.041 | – | – | – | – | – | –
2 | IgG1-FAPα-FERL (antibody, Bivalent monoclonal IgG1 kappa) heavy: EVQLLESGGGLVQPGGSPRLSCEASGFTFSSYALSWVRQAPGKGLEWVSAISGSGGGRYYADSVKGRFTISRDNSKNTLFLQMNSLRAEDTAVYYCAKEGYSSSGTYWDHWGQGTLVTVSSASTKGPSVFPLAPSSKSTSGGTAALGCLVKDYFPEPVTVSWNSGALTSGVHTFPAVLQSSGLYSLSSVVTVPSSSLGTQTYICNVNHKPSNTKVDKRVEPKSCDKTHTCPPCPAPEFERGPSVFLFPPKPKDTLMISRTPEVTCVVVDVSHEDPEVKFNWYVDGVEVHNAKTKPREEQYNSTYRVVSVLTVLHQDWLNGKEYKCKVSNKALPAPIEKTISKAKGQPREPQVYTLPPSREEMTKNQVSLTCLVKGFYPSDIAVEWESNGQPENNYKTTPPVLDSDGSFLLYSKLTVDKSRWQQGNVFSCSVMHEALHNHYTQKSLSLSPG light: AIQMTQSPSSVSASVGDRVTITCRASQGVSSWLAWYQQKPGRAPKLLIYVASTLQSGVPSRFSGSGSGTDFTLTINSLQPEDFATYYCQQANSFPPTFGQGTRLEMKRTVAAPSVFIFPPSDEQLKSGTASVVCLLNNFYPREAKVQWKVDNALQSGNSQESVTEQDSKDSTYSLSSTLTLSKADYEKHKVYACEVTHQGLSSPVTKSFNRGEC | 0.016 | 0.022 | 0.015 | – | – | – | – | – | –
3 | IgG1-DR4-FERR (antibody, V domains shown, Bivalent monoclonal IgG1 lambda) VH: QVQLQESGPGLVKPSGTLSLTCAVSGGSISSYSWWSWIRQPPGKGLEWIGELYHSGSTNYNPSLKSRVTISVDKSKNQFSLKLRSVTAADTAVYYCVRGVATIDYWGQGTLVTVSS VL: QSALTQPPSASGSPGQSVTISCTGTSSDVGGYNFVSWYQQDPGKAPKLLIYEVTKRPSGVPDRFSGSKSGNTASLTVSGLQAEDEADYYCSSYAGSNNVMFGGGTKLTVLG | – | – | – | 0.51 | 0.26 | 0.22 | 0.18 | 0.27 | 0.49
